Measurements taken from the Human Domainome abundance scans (Beltran et al. 2025).
± gives the uncertainty stated by the source.

B1: Ankyrin-3, residues 4094 to 4171; numbered along this chain, Q12955 (parent)
chain: MAIVADHLGLSWTELARELNFSVDEINQIRVENPNSLISQSFMLLKKWVTRDGKNATTDALTSVLTKINRIDIVTLLE

Variants of: B1
Experiment: abundance fitness (aPCA) (normalised: wild type 0, dead -1); higher = more abundant; growth selection in yeast, the domain comes from the species named
Settings: Homo sapiens

Compared with T57N, I29W is lower in abundance fitness: 0.079 ± 0.12 for the first, -0.979 ± 0.17 for the second.

Going from N69V to D59L, the abundance fitness rises from -0.928 ± 0.14 to -0.133 ± 0.048.

Going from V49C to N55G, the abundance fitness rises from -0.095 ± 0.07 to 0.057 ± 0.038.

Going from S11T to R30M, the abundance fitness rises from -0.314 ± 0.06 to 0.111 ± 0.099.

First: D52E
Second: T57I
The abundance fitness of the first is higher: -0.025 ± 0.074 for the first, -0.779 ± 0.3 for the second.

I73E and M1D are within error of each other in abundance fitness: -0.989 ± 0.31 for the first, -0.643 ± 0.42 for the second.

Compared with S36C, S39W is lower in abundance fitness: -0.184 ± 0.11 for the first, -0.47 ± 0.094 for the second.

L10T and V49I are within error of each other in abundance fitness: -0.046 ± 0.079 for the first, -0.041 ± 0.082 for the second.

Compared with W48P, A2Q is higher in abundance fitness: -0.923 ± 0.28 for the first, 0.058 ± 0.072 for the second.

K47W and E78H are within error of each other in abundance fitness: -0.124 ± 0.058 for the first, -0.026 ± 0.085 for the second.

L44C and V64S are within error of each other in abundance fitness: -0.116 ± 0.09 for the first, -0.06 ± 0.089 for the second.

D72R and L45R are within error of each other in abundance fitness: -0.784 ± 0.11 for the first, -0.865 ± 0.095 for the second.

V4A and R17I are within error of each other in abundance fitness: -0.253 ± 0.073 for the first, -0.412 ± 0.3 for the second.

L15R and W48T are within error of each other in abundance fitness: -0.869 ± 0.11 for the first, -0.876 ± 0.26 for the second.

M1C and L77K are within error of each other in abundance fitness: -0.198 ± 0.23 for the first, -0.602 ± 0.22 for the second.

First: T13A
Second: A2N
The abundance fitness of the first is lower: -0.153 ± 0.064 for the first, 0.08 ± 0.16 for the second.

First: L19T
Second: T13L
The abundance fitness of the first is lower: -0.927 ± 0.28 for the first, -0.104 ± 0.049 for the second.

Compared with D59S, S11G is lower in abundance fitness: -0.118 ± 0.052 for the first, -0.261 ± 0.056 for the second.

Going from V31S to L45M, the abundance fitness falls from -0.006 ± 0.062 to -0.193 ± 0.085.

S22C and D6L are within error of each other in abundance fitness: 0.048 ± 0.5 for the first, -0.352 ± 0.063 for the second.

N55A and R17A are within error of each other in abundance fitness: 0.007 ± 0.06 for the first, -0.033 ± 0.068 for the second.

Going from S39F to T58E, the abundance fitness rises from -0.434 ± 0.24 to -0.113 ± 0.079.

F21A and I68S are within error of each other in abundance fitness: -0.842 ± 0.14 for the first, -0.935 ± 0.21 for the second.

Going from V23Q to T57R, the abundance fitness falls from 0.16 ± 0.056 to -0.548 ± 0.066.

First: V31E
Second: R51I
The abundance fitness of the first is higher: -0.139 ± 0.098 for the first, -0.616 ± 0.35 for the second.

L8F and K67L are within error of each other in abundance fitness: -0.463 ± 0.4 for the first, -0.641 ± 0.2 for the second.

I29C and D52F are within error of each other in abundance fitness: -0.741 ± 0.18 for the first, -0.748 ± 0.26 for the second.

S36N and N33S are within error of each other in abundance fitness: -0.044 ± 0.14 for the first, -0.014 ± 0.055 for the second.

Compared with I38T, E78Q is lower in abundance fitness: -0.122 ± 0.071 for the first, -0.397 ± 0.2 for the second.

Compared with D24Q, G53R is lower in abundance fitness: 0.063 ± 0.069 for the first, -0.367 ± 0.057 for the second.

Compared with D52W, V23K is higher in abundance fitness: -0.874 ± 0.18 for the first, -0.142 ± 0.089 for the second.

First: E78G
Second: H7G
The abundance fitness of the first is higher: 0.077 ± 0.13 for the first, -0.705 ± 0.062 for the second.

L37A and S36H are within error of each other in abundance fitness: -0.095 ± 0.065 for the first, -0.295 ± 0.15 for the second.

A5R and N35L are within error of each other in abundance fitness: -0.498 ± 0.076 for the first, -0.626 ± 0.065 for the second.

D6G and T75W are within error of each other in abundance fitness: -0.156 ± 0.05 for the first, -0.189 ± 0.072 for the second.

Going from T50N to L45E, the abundance fitness falls from -0.204 ± 0.23 to -0.851 ± 0.28.

Going from R30K to L44W, the abundance fitness falls from -0.02 ± 0.16 to -0.806 ± 0.07.

Going from E18C to N20A, the abundance fitness rises from -0.531 ± 0.12 to -0.162 ± 0.058.

Compared with L61R, K46Y is lower in abundance fitness: -0.412 ± 0.067 for the first, -0.665 ± 0.16 for the second.

Going from K54E to M1T, the abundance fitness falls from -0.132 ± 0.11 to -0.801 ± 0.4.

Compared with F42K, Q40N is lower in abundance fitness: 0.201 ± 0.093 for the first, -1.03 ± 0.38 for the second.

Going from N20R to I71K, the abundance fitness rises from -0.18 ± 0.047 to 0.057 ± 0.13.

Compared with S11C, H7E is higher in abundance fitness: -0.342 ± 0.087 for the first, 0.011 ± 0.074 for the second.

E18W and V4K are within error of each other in abundance fitness: -0.825 ± 0.16 for the first, -0.806 ± 0.29 for the second.

T13D and K54Y are within error of each other in abundance fitness: -0.35 ± 0.18 for the first, -0.147 ± 0.079 for the second.

N35T and K54Q are within error of each other in abundance fitness: -0.018 ± 0.076 for the first, -0.054 ± 0.085 for the second.

First: L44R
Second: T57V
The abundance fitness of the first is lower: -0.796 ± 0.1 for the first, -0.124 ± 0.055 for the second.

W12R and I68R are within error of each other in abundance fitness: -0.844 ± 0.12 for the first, -0.965 ± 0.12 for the second.

L15P and R51D are within error of each other in abundance fitness: -0.741 ± 0.15 for the first, -0.637 ± 0.46 for the second.

T57A and A56F are within error of each other in abundance fitness: -0.195 ± 0.066 for the first, -0.304 ± 0.19 for the second.

F21V and L65G are within error of each other in abundance fitness: -0.81 ± 0.1 for the first, -0.825 ± 0.11 for the second.

Going from G53F to A60G, the abundance fitness rises from -0.728 ± 0.14 to -0.233 ± 0.048.

Compared with S63D, A56N is lower in abundance fitness: 0.054 ± 0.12 for the first, -0.53 ± 0.29 for the second.

K46F and T57P are within error of each other in abundance fitness: -0.762 ± 0.3 for the first, -0.896 ± 0.15 for the second.

Going from S11V to D24S, the abundance fitness rises from -0.84 ± 0.11 to -0.199 ± 0.055.

First: N69P
Second: F42M
The abundance fitness of the first is lower: -0.811 ± 0.16 for the first, 0.102 ± 0.12 for the second.

Compared with W48M, M43A is higher in abundance fitness: -0.635 ± 0.31 for the first, 0.047 ± 0.065 for the second.

Going from L65D to S39Y, the abundance fitness falls from 0.076 ± 0.19 to -0.616 ± 0.24.

L19A and V74D are within error of each other in abundance fitness: -0.591 ± 0.089 for the first, -0.944 ± 0.38 for the second.

Going from A60K to G9D, the abundance fitness falls from -0.083 ± 0.19 to -0.503 ± 0.17.

V49F and V74K are within error of each other in abundance fitness: -0.154 ± 0.11 for the first, -0.255 ± 0.18 for the second.

First: L37T
Second: A5I
The abundance fitness of the first is higher: -0.03 ± 0.076 for the first, -0.74 ± 0.31 for the second.

R70C and D6F are within error of each other in abundance fitness: -0.817 ± 0.2 for the first, -0.658 ± 0.36 for the second.

Compared with S36G, S11F is lower in abundance fitness: -0.28 ± 0.053 for the first, -0.654 ± 0.19 for the second.

Compared with L44S, V31Y is higher in abundance fitness: -0.914 ± 0.13 for the first, 0.057 ± 0.24 for the second.

G53Q and M43E are within error of each other in abundance fitness: -0.065 ± 0.059 for the first, 0.056 ± 0.081 for the second.

V64P and L76Q are within error of each other in abundance fitness: 0.037 ± 0.085 for the first, 0.028 ± 0.085 for the second.

N20K and H7Q are within error of each other in abundance fitness: -0.169 ± 0.088 for the first, -0.043 ± 0.066 for the second.

Going from S39H to S41I, the abundance fitness falls from -0.084 ± 0.17 to -0.74 ± 0.28.

L10M and T13Q are within error of each other in abundance fitness: -0.114 ± 0.094 for the first, -0.201 ± 0.11 for the second.

N35Q and V4I are within error of each other in abundance fitness: -0.077 ± 0.066 for the first, -0.169 ± 0.17 for the second.

First: V4T
Second: N55M
The abundance fitness of the first is lower: -0.291 ± 0.08 for the first, -0.047 ± 0.075 for the second.

First: R30I
Second: L65E
The abundance fitness of the first is higher: 0.064 ± 0.11 for the first, -0.824 ± 0.15 for the second.

Compared with I3K, L77S is lower in abundance fitness: -0.27 ± 0.11 for the first, -0.526 ± 0.088 for the second.

D59F and L45Q are within error of each other in abundance fitness: -0.565 ± 0.36 for the first, -0.833 ± 0.2 for the second.

Compared with E18H, V31A is higher in abundance fitness: -0.317 ± 0.15 for the first, -0.07 ± 0.055 for the second.

I71A and K54D are within error of each other in abundance fitness: -0.075 ± 0.071 for the first, -0.233 ± 0.15 for the second.

Compared with V64Q, G53M is lower in abundance fitness: 0.064 ± 0.17 for the first, -0.772 ± 0.26 for the second.

L8Q and L19H are within error of each other in abundance fitness: -0.755 ± 0.19 for the first, -0.694 ± 0.25 for the second.

K67W and I26K are within error of each other in abundance fitness: -0.667 ± 0.37 for the first, -0.953 ± 0.26 for the second.

First: E25Q
Second: V64L
The abundance fitness of the first is lower: -0.251 ± 0.045 for the first, 0.111 ± 0.07 for the second.

D59V and L15F are within error of each other in abundance fitness: -0.117 ± 0.049 for the first, -0.149 ± 0.096 for the second.

D6N and I71Q are within error of each other in abundance fitness: -0.067 ± 0.3 for the first, 0.136 ± 0.14 for the second.

Variant T58W has an abundance fitness of -0.123 ± 0.074.
